Patent US20110200585A1 (GlaxoSmithKline, published 2011)

T1: Mouse FcRn (mouse, UniProt Q61559 22-297; P01887 21-119, limits assumed)
T1 sequence (looked up) 1: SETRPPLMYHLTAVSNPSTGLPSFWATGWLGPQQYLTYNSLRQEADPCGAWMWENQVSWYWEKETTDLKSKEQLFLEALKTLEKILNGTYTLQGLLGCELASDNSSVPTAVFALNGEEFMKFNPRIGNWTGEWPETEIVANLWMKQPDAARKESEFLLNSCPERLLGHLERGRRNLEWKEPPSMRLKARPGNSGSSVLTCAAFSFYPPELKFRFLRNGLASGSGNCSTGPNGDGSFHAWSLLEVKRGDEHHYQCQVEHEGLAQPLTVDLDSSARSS
T1 sequence (looked up) 2: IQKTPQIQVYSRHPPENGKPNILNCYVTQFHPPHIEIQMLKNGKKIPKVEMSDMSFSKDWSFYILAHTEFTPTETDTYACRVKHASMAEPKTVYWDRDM

T2: rat FcRn (rat, UniProt P13599 23-298; P07151 21-119, limits assumed)
T2 sequence (looked up) 1: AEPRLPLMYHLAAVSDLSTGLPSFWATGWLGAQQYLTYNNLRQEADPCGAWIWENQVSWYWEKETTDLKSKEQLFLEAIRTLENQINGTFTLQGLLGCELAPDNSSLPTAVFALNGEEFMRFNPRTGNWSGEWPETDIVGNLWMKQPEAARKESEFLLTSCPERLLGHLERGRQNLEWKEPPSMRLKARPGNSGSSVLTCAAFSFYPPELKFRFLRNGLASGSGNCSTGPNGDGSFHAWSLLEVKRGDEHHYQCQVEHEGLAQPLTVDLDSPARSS
T2 sequence (looked up) 2: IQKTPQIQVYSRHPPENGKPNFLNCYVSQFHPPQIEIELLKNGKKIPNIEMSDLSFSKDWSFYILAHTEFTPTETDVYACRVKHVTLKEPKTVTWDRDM

T3: Fcγ2a (Arg) (UniProt P12318 34-217)
T3 construct: also called Fc Gamma IIa, Arg form
T3 sequence (looked up): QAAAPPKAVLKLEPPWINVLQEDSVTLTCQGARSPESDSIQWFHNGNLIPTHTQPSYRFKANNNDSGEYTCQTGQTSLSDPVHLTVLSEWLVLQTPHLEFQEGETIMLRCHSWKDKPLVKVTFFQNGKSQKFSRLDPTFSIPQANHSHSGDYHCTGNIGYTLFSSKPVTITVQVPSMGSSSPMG

T4: Fcγ2a (His) (UniProt P12318 34-217)
T4 construct: also called Fc Gamma IIa, His form
T4 sequence (looked up): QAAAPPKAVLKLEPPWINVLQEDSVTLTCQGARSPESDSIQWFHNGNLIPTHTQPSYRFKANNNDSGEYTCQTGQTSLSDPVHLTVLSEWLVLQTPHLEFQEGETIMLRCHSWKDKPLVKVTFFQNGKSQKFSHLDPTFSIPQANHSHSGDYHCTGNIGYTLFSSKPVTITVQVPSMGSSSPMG

T5: human IL-7Rα (CD127) on cells (human, UniProt P16871 21-459)
T5 chain: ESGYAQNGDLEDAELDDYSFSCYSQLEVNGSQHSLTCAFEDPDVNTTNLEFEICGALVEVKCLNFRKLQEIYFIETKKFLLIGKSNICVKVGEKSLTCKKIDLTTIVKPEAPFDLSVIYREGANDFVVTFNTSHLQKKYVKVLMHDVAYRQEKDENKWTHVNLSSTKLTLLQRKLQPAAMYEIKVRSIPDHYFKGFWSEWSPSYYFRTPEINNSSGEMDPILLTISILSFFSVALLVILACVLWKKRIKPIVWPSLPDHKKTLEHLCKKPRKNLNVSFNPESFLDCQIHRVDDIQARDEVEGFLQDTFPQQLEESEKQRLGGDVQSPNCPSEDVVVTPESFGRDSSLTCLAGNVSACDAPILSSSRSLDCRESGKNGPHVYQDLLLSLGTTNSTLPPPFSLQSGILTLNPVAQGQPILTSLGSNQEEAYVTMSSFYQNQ


Key:
Human FcRn = Human FcRn (human, UniProt P55899 24-297; P61769 21-119, limits assumed); assay: SPR, ProteOn XPR36; antibody amine-coupled to GLM chip, FcRn 8-2048 nM as analyte, equilibrium fit, pH 6.0
Protocol: (§1) The work was carried out on the ProteOn XPR36 surface plasmon resonance machine (BioRad). The antibodies to be tested were coupled to a GLM biosensor chip by primary amine coupling. […] All binding sensograms were double referenced with a 0 nM injection (i.e. buffer alone). The data was fitted to the Equilibrium model inherent to the ProteOn analysis software.

Cyno FcRn = Cyno FcRn (cyno, UniProt Q8SPV9 24-297; Q8SPW0 21-119, limits assumed); assay: as above
Protocol: as §1

Mouse FcRn = biological target: T1, Mouse FcRn; assay: as above
Protocol: as §1

rat FcRn = biological target: T2, rat FcRn; assay: as above
Protocol: as §1

Fcγ2a (Arg) = biological target: T3, Fcγ2a (Arg); assay: SPR, ProteOn XPR36; antibody amine-coupled to GLM chip, receptor 8-2048 nM as analyte, equilibrium fit, pH 7.4
Protocol: as §1

Fcγ2a (His) [1] = biological target: T4, Fcγ2a (His); assay: as above
Protocol: as §1

Fcγ3a (Phe) [2] = biological target: T6, Fcγ3a (Phe) (UniProt P08637 17-208); assay: as above
T6 construct: also called Fc Gamma IIIa, Phe form
Protocol: as §1

Fcγ (Val) [3] = biological target: T7, Fcγ (Val) (UniProt P08637 17-208); assay: as above
Protocol: as §1

Fcγ1 = biological target: T8, Fcγ1 (UniProt P12314 16-288); assay: as above
T8 construct: also called Fc Gamma I
Protocol: as §1

Fcγ2a (His) [4] = biological target: T4, Fcγ2a (His); assay: SPR, ProteOn XPR36; antibody amine-coupled to GLM chip, receptor as analyte
Protocol: as §1

Fcγ3a (Phe) [5] = biological target: T6, Fcγ3a (Phe); assay: as above
Protocol: as §1

Fcγ (Val) [6] = biological target: T7, Fcγ (Val); assay: as above
Protocol: as §1

[7] = biological target: T5, human IL-7Rα (CD127) on cells; assay: cell-based or functional assay

T7 sequence (P08637 17-208 F176V): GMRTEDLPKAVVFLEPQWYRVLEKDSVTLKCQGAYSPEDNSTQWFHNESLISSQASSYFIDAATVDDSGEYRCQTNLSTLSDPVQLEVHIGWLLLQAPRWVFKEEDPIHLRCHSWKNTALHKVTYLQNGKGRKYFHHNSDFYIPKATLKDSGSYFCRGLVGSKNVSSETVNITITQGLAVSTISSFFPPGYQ
T6 sequence (P08637 17-208): as the sequence (P08637 17-208 F176V) above, with V160F counted along it
Chain of Human FcRn (P55899 24-297 limits assumed, chain 1 of 2): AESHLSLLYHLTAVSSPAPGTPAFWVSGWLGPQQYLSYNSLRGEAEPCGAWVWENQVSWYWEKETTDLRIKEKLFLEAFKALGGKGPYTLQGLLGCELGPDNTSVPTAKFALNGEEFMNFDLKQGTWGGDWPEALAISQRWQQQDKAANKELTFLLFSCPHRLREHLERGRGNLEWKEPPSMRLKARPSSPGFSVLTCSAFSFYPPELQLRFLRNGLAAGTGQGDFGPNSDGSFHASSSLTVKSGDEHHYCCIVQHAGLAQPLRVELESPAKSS
Chain of Human FcRn (P61769 21-119 limits assumed, chain 2 of 2): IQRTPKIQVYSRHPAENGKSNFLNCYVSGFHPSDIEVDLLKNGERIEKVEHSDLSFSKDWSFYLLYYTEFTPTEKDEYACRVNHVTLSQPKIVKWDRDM
T8 sequence (P12314 16-288): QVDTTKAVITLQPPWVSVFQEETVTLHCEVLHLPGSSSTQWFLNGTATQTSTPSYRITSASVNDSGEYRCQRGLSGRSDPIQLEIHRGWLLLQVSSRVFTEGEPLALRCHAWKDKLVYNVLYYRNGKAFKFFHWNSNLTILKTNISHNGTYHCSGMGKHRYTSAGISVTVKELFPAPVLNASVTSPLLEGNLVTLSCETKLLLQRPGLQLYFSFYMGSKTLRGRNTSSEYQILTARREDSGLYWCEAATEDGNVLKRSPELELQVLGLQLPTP

Binder | Kd (Human FcRn) | Kd (Cyno FcRn) | Kd (Mouse FcRn) | Kd (rat FcRn) | Kd (Fcγ2a (Arg)) | Kd (Fcγ2a (His) [1]) | Kd (Fcγ3a (Phe) [2]) | Kd (Fcγ (Val) [3]) | Kd (Fcγ1) | binding result (Fcγ2a (His) [4]) | binding result (Fcγ3a (Phe) [5]) | binding result (Fcγ (Val) [6]) | IC50 of inhibition of IL-7 induced STAT5 phosphorylation in human PBMC (flow cytometry) [7]
1A11 H3L4 (antibody, IgG1, Humanised IgG1 kappa; also called BPC1142; anti-IL7R 1A11 H3L4; copies: 2 + 2) heavy: not shown light: EIVLTQSPATLSLSPGERATLSCSASSSVTYMHWYQQKPGQAPRPLIYEISKLASGIPARFSGSGSGTDFTLTISSLEPEDFAVYYCQEWNYPYTFGGGTKVEIKRTVAAPSVFIFPPSDEQLKSGTASVVCLLNNFYPREAKVQWKVDNALQSGNSQESVTEQDSKDSTYSLSSTLTLSKADYEKHKVYACEVTHQGLSSPVTKSFNRGEC | 183 nM | 210 nM | 192 nM | 145 nM | 1250 nM | 1040 nM | 990 nM | 319 nM | 21.4 nM |  |  |  | 
1A11 H3L4Fc (antibody, also called Fc-disabled anti-IL7R mAb; Fc-disabled 1A11 H3L4; copies: 2 + 2) heavy: not shown light: EIVLTQSPATLSLSPGERATLSCSASSSVTYMHWYQQKPGQAPRPLIYEISKLASGIPARFSGSGSGTDFTLTISSLEPEDFAVYYCQEWNYPYTFGGGTKVEIKRTVAAPSVFIFPPSDEQLKSGTASVVCLLNNFYPREAKVQWKVDNALQSGNSQESVTEQDSKDSTYSLSSTLTLSKADYEKHKVYACEVTHQGLSSPVTKSFNRGEC | 158 nM | 248 nM | 207 nM | 163 nM |  |  |  |  |  | no binding (tested: up to 2048 nM receptor) | no binding (tested: up to 2048 nM receptor) | no binding (tested: up to 2048 nM receptor) | 
parental 1A11 monoclonal antibody (antibody, V domains shown) VH: EVQLQQSGPELLKPGASMKISCKASGYSFTGYTMNWVKQSHGKNLEWIGLINPYNGVTSYNQKFKGKATLTVAKSSSTAYMELLSLTSEDSAVYYCARGDGNYWYFDVWGAGTTVTVSS VL: EIVLTQSPAITAASLGQKVTITCSASSSVTYMHWYQQKSGTSPKPWIYEISKLASGVPVRFSGSGSGTSYSLTISSMEAEDAAIYYCQEWNYPYTFGGGTKLEIK |  |  |  |  |  |  |  |  |  |  |  |  | 0.088 µg/mL
